{"source": "paper doi:10.1101/2021.07.12.452090", "about": "(bioRxiv, 2021)"}
{"target": "His-tagged human CTLA-4 antigen (Homo sapiens, UniProt P16410)", "sequence (P16410 36-161)": "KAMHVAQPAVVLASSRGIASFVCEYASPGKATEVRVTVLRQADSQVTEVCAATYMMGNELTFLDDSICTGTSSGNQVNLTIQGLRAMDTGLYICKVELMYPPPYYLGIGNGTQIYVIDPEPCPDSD", "units": {"Kd": "nM"}}
{"binder": "aCTLA-4.4 (antibody, V domains shown) VH: QVQLVESGGGVVQPGRSLRLSCAASGFTFSNYGMNWVRQAPGKGLEWVAVIWYDGRNKHYADSVKGRFTISRDNSKNTLYLQMNSLRAEDTAVYYCARGGDWGPYFDYWGQGTLVTVSS VL: not shown", "Kd": 5.1}
{"binder": "aCTLA-4.1 (antibody, V domains shown) VH: QVQLVESGGGVVQPGRSLRLSCAASGFTFSRYGMHWVRQAPGKGLEWVAVIWYDGRNKYYADSVKGRFTISRDNSKNTLYLQMNSLRAEDTALYSCARAGELGPFDYWGQGTLVTVSS VL: EIVLTQSPGTLSLSPGERATLSCRASQSVSYLAWYQQKPGQAPRLLIYGASSRATGIPDRFSGSGSGTDFTLTISRLEPEDFAVYYCQQYGSSPWTFGQGTKVEIK", "Kd": 4.6}
{"binder": "aCTLA-4.26 (antibody, V domains shown) VH: QVQLVESGGGVVQPGRSLRLSCAASGFTFSSYGMHWVRQAPGKGLEWVAVIWYDGSYKYYADSVKGRFTISRDDSKNTLYLQMSSLRAEDTAVYYCARAPHYAILTGYYEDYWGQGTLVTVSS VL: not shown", "Kd": 5.7}
{"binder": "aCTLA-4.24 (antibody, V domains shown) VH: QVQLVESGGGVVQPGRSLRLSCAASGFTFSSHGMHWVRQAPGKGLEWVAVIWYDGSNKHYADSVKGRFTISRDNSKNTLYLQMNSLRAEDTAVYYCARGDILTGYYGYWGQGTLVTVSS VL: not shown", "Kd": 6.8}
{"binder": "aCTLA-4.9 (antibody, V domains shown) VH: QVQLVESGGGVVQPGRSLRLSCAASGFTFSSFGMHWVRQAPGKGLEWVAVIWYDGRNKYYVDSVKGRFTISRDNSNNTLYLQMNSLRAEDTAVYYCARGEFFGEFFDYWGQGTLVTVSS VL: EIVLTQSPGTLSLSPGEGATLSCRASQSFSSNYLAWYQQKPGQAPRLLIYGASSRATGIPDRFSGSGSGTDFTLTISRLEPEDFAVYYCQQYGTSPFTFGPGTKVDIK", "Kd": 0.77}
